Laboratory results taken from the supplement of paper PMC10567573.

B1: P2RY14 (parent)
chain: KKIFKSHLKSSRNSTSVKKKSSRN
B2: PPEF2 (parent)
chain: DHSGFISLDEFRQTWKLFSSHMNI

Variants of: B1
Assay: protein stability index of a GFP-peptide fusion (GPS, HEK-293T) (PSI 1-6); higher = more stable
Details: c terminus: a fixed tail appended
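Also: lentivirally expressed fusions sorted by FACS into six bins by GFP to DsRed ratio, PSI derived from sequencing read proportions per bin multiplied by bin number.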

Variant | protein stability index
KKIFKSHLKSSRQSTSVKKKSSRN [N13Q] | 4.2
KKIFKSHLKSSRYSTSVKKKSSRN [N13Y] | 3.6
KKIFKSHLKSSRHSTSVKKKSSRN [N13H] | 3.52
KKIFKSHLKSSRASTSVKKKSSRN [N13A] | 4.12
KKIFKSHLKSSRSSTSVKKKSSRN [N13S] | 4.89
KKIFKSHLKSSRLSTSVKKKSSRN [N13L] | 3.3
KKIFKSHLKSSRNSTSVKKKSKRN [S22K] | 4.43
KKIFKSHLKSSRNSTSVKKKSTRN [S22T] | 4.19
KKIFKSHLKSSRNSTSVKKKSHRN [S22H] | 4.64
KKIFKSHLKSIRNSTSVKKKSSRN [S11I] | 3.98
KKIFKSHLKSRRNSTSVKKKSSRN [S11R] | 4.44
KKIFKSHLKSDRNSTSVKKKSSRN [S11D] | 4.33
KKIFKSHLKSSRNSTHVKKKSSRN [S16H] | 4.45
KKIFKSHLKSSRNSTTVKKKSSRN [S16T] | 4.22
KKIFKSHLKSSRNSTAVKKKSSRN [S16A] | 4.16
KKIFKSHLKSSRNSTMVKKKSSRN [S16M] | 4.35
KKPFKSHLKSSRNSTSVKKKSSRN [I3P] | 4.38
KKWFKSHLKSSRNSTSVKKKSSRN [I3W] | 3.79
KKAFKSHLKSSRNSTSVKKKSSRN [I3A] | 4.18
KKIFKSHLKSSRNSTSVKKKSSKN [R23K] | 4.2
KKIFKWHLKSSRNSTSVKKKSSRN [S6W] | 3.26
KKIFKFHLKSSRNSTSVKKKSSRN [S6F] | 3.34
KKIFKCHLKSSRNSTSVKKKSSRN [S6C] | 4.06

Variant | protein stability index
KKIFKSHLDSSRNSTSVKKKSSRN [K9D] | 4.05
KKIFKSHLNSSRNSTSVKKKSSRN [K9N] | 4.5
KKIFKSHLWSSRNSTSVKKKSSRN [K9W] | 3.21
KKIFKSHLFSSRNSTSVKKKSSRN [K9F] | 3.57
KKIFKSHLTSSRNSTSVKKKSSRN [K9T] | 3.98
KKIFKSHLYSSRNSTSVKKKSSRN [K9Y] | 3.67
KKIFKSHLGSSRNSTSVKKKSSRN [K9G] | 4.01
KKIFKSHLKSSRNSTSHKKKSSRN [V17H] | 4.1
KKIFKSHLKSSRNSTSCKKKSSRN [V17C] | 4.17
KKIFNSHLKSSRNSTSVKKKSSRN [K5N] | 4.33
KNIFKSHLKSSRNSTSVKKKSSRN [K2N] | 4.13
KDIFKSHLKSSRNSTSVKKKSSRN [K2D] | 4.66
KWIFKSHLKSSRNSTSVKKKSSRN [K2W] | 3.12
KAIFKSHLKSSRNSTSVKKKSSRN [K2A] | 3.91
KTIFKSHLKSSRNSTSVKKKSSRN [K2T] | 4.3
KKIFKSHLKLSRNSTSVKKKSSRN [S10L] | 4.02
KKIFKSHLKSSRNSTSVGKKSSRN [K18G] | 3.99
KKIFKSHLKSSRNSTSVDKKSSRN [K18D] | 3.98
KKIFKSHLKSSRNSTSVKDKSSRN [K19D] | 3.6
KKIFKSHLKSSRNSTSVKFKSSRN [K19F] | 3.13
KKIFKSHLKSSRNSTSVKTKSSRN [K19T] | 3.62
KKIFKSHLKSSRNSTSVKYKSSRN [K19Y] | 3.17
KKIFKSHLKSSRNSTSVKGKSSRN [K19G] | 4.02

Variant | protein stability index
KKIFKSGLKSSRNSTSVKKKSSRN [H7G] | 4.27
KKIFKSILKSSRNSTSVKKKSSRN [H7I] | 3.72
KKIFKSNLKSSRNSTSVKKKSSRN [H7N] | 4
KKIFKSLLKSSRNSTSVKKKSSRN [H7L] | 3.7
KKIFKSHLKSSRNSQSVKKKSSRN [T15Q] | 4.09
KKIFKSHLKSSRNSFSVKKKSSRN [T15F] | 3.52
KKIFKSHLKSSRNSESVKKKSSRN [T15E] | 4.35
KKIFKSHLKSSRNSSSVKKKSSRN [T15S] | 4.16
KKIFKSHLKSSRNSWSVKKKSSRN [T15W] | 3.46
KKIFKSHLKSSRNSHSVKKKSSRN [T15H] | 4.01
KKIFKSHLKSSRNSPSVKKKSSRN [T15P] | 4.28
KKIFKSHLKSSRNSTSVKKASSRN [K20A] | 3.64
KKIFKSHLKSSRNSTSVKKTSSRN [K20T] | 3.62
KKIFKSHLKSSRNSTSVKKGSSRN [K20G] | 3.43
KKIFKSHLKSSRNSTSVKKSSSRN [K20S] | 4.07
KKIFKSHLKSSRNSTSVKKLSSRN [K20L] | 3.42
KKIFKSHLKSSRNTTSVKKKSSRN [S14T] | 4.33
KKIFKSHLKSSRNNTSVKKKSSRN [S14N] | 4.44
KKIFKSHLKSSRNLTSVKKKSSRN [S14L] | 3.88
KKIFKSHLKSSRNPTSVKKKSSRN [S14P] | 4.43
KKIFKSHLKSSFNSTSVKKKSSRN [R12F] | 3.83
KKIHKSHLKSSRNSTSVKKKSSRN [F4H] | 4.07
KKICKSHLKSSRNSTSVKKKSSRN [F4C] | 4.27

Variant | protein stability index
KKINKSHLKSSRNSTSVKKKSSRN [F4N] | 4.49
KKIVKSHLKSSRNSTSVKKKSSRN [F4V] | 4.39
KKIFKSHDKSSRNSTSVKKKSSRN [L8D] | 4.58
KKIFKSHPKSSRNSTSVKKKSSRN [L8P] | 4.33
KKIFKSHSKSSRNSTSVKKKSSRN [L8S] | 5.01
KKIFKSHLKSSRNSTSVKKKISRN [S21I] | 3.98
KKIFKSHLKSSRNSTSVKKKPSRN [S21P] | 3.72
KKIFKSHLKSSRNSTSVKKKGSRN [S21G] | 3.8
KKIFKSHLKSSRNSTSVKKKESRN [S21E] | 3.8
CKIFKSHLKSSRNSTSVKKKSSRN [K1C] | 3.51
NKIFKSHLKSSRNSTSVKKKSSRN [K1N] | 4.4
QKIFKSHLKSSRNSTSVKKKSSRN [K1Q] | 4.25
MKIFKSHLKSSRNSTSVKKKSSRN [K1M] | 3.43
HKIFKSHLKSSRNSTSVKKKSSRN [K1H] | 4.63
KKIFKSHLKSSRNSTSVKKKSSRW [N24W] | 3.6
KKIFKSHLKSSRNSTSVKKKSSRR [N24R] | 4.16
KKIFKSHLKSSRNSTSVKKKSSRP [N24P] | 3.91
KKIFKSHLKSSRNSTSVKKKSSRG [N24G] | 4.57
KKIFKSHLKSSRNSTSVKKKSSRM [N24M] | 3.3
KKIFKSHLKSSRNSTSVKKKSSRI [N24I] | 3.61

Variants of: B2
Assay: as above
Details: c terminus: a fixed tail appended

Variant | protein stability index
DHSGFISLDEFRQTWKLFSSHMSI [N23S] | 2.26
DHSGFISLDEFRQTWKLFSSHMVI [N23V] | 3.85
DHSGFISLDEFRQTWKLFSSHMTI [N23T] | 2.83
DHSGFISLDEFRQTWKLFSSHMCI [N23C] | 2.72
DHSGFISLDEFRQTWKLFSSHMLI [N23L] | 2.3
